Measured values: the Human Domainome abundance scans (Beltran et al. 2025)
± gives the uncertainty stated by the source.

B1: Ventral anterior homeobox 1, residues 102 to 157; numbered along this chain, Q5SQQ9 (parent)
chain: RTRTSFTAEQLYRLEMEFQRCQYVVGRERTELARQLNLSETQVKVWFQNRRTKQKK

Variants of: B1
Assay: abundance fitness (aPCA) (normalised: wild type 0, dead -1); higher = more abundant; growth selection in yeast, the domain comes from the species named
Settings: Homo sapiens

Variant	abundance fitness
L36E	-0.983 ± 0.26
L36K	-1.18 ± 0.42
L36W	-0.696 ± 0.15
L11T	-0.149 ± 0.16
L11M	-0.172 ± 0.19
L11D	0.022 ± 0.12
L11W	-0.494 ± 0.16
L11F	-0.159 ± 0.16
L11Y	-0.335 ± 0.16
L11G	-0.254 ± 0.1
L11N	0.18 ± 0.17
R20G	-0.409 ± 0.12
R20I	-0.386 ± 0.28
R20S	-0.04 ± 0.14
R3L	0.156 ± 0.084
R3Q	0.084 ± 0.14
R3W	0.054 ± 0.16
R3H	0.229 ± 0.098
R3D	0.326 ± 0.12
R3M	0.279 ± 0.16
R3G	0.223 ± 0.095
R3V	0.096 ± 0.094

Variant	abundance fitness
V43R	-0.793 ± 0.18
V43W	-0.871 ± 0.23
V43D	-0.691 ± 0.37
V43Q	-0.817 ± 0.43
R1G	-0.002 ± 0.19
W46S	-0.627 ± 0.23
W46K	-1.11 ± 0.45
W46F	-0.406 ± 0.37
W46M	-0.919 ± 0.33
W46L	-0.717 ± 0.2
W46V	-0.63 ± 0.19
W46G	-0.778 ± 0.14
W46T	-0.922 ± 0.3
W46I	-0.807 ± 0.4
T7V	-0.466 ± 0.13
T7R	-0.499 ± 0.11
T7P	-0.734 ± 0.24
T7A	-0.411 ± 0.12
K44F	-0.464 ± 0.31
K44L	-0.175 ± 0.12
K44V	-0.032 ± 0.11
S39E	-0.115 ± 0.18

Variant	abundance fitness
S39T	-0.218 ± 0.17
S39I	-1.08 ± 0.44
S39D	0.264 ± 0.18
T30N	-0.097 ± 0.34
T30G	-0.215 ± 0.14
T30K	-0.19 ± 0.37
T30H	-0.261 ± 0.34
T30E	0.018 ± 0.23
T30M	-0.225 ± 0.3
T41H	-0.027 ± 0.19
T41E	0.106 ± 0.13
T41D	0.105 ± 0.18
T41G	0.03 ± 0.096
T41I	-0.5 ± 0.3
T41F	-0.129 ± 0.19
T41W	-0.12 ± 0.12
V45I	-0.3 ± 0.22
V45H	-0.021 ± 0.21
V45A	0.02 ± 0.11
V45F	-0.03 ± 0.26
V45L	0.083 ± 0.13
V25R	-0.16 ± 0.11

Variant	abundance fitness
V25H	-0.011 ± 0.29
V25M	-0.396 ± 0.21
V25S	-0.071 ± 0.13
V25G	0.003 ± 0.11
T2M	-0.128 ± 0.26
T2R	-0.166 ± 0.13
T2K	-0.202 ± 0.19
R34W	-0.42 ± 0.33
R34A	0.179 ± 0.15
R34E	-0.235 ± 0.24
R34S	-0.061 ± 0.17
A8E	0 ± 0.16
A8S	-0.064 ± 0.13
A8Y	-0.158 ± 0.29
A8L	-0.14 ± 0.11
L32M	-0.314 ± 0.3
L32G	-1.21 ± 0.43
L32R	-0.826 ± 0.2
R27P	0.008 ± 0.18
R27I	0.19 ± 0.43
R27C	-0.026 ± 0.2
R27E	0.167 ± 0.15

Variant	abundance fitness
R27N	0.156 ± 0.29
E17F	-0.031 ± 0.36
E17V	-0.296 ± 0.15
E17C	-0.209 ± 0.22
E17D	-0.65 ± 0.29
E17T	-0.297 ± 0.23
E17R	-0.421 ± 0.13
E17I	-0.544 ± 0.37
E17K	-0.604 ± 0.3
R51D	-0.14 ± 0.22
R51E	-0.309 ± 0.19
R51G	-0.16 ± 0.1
R51S	-0.201 ± 0.13
R51N	-0.117 ± 0.35
R51C	-0.08 ± 0.17
F6R	-0.71 ± 0.12
F6H	-0.283 ± 0.25
F6K	-0.42 ± 0.33
F6I	-0.089 ± 0.27
F6Q	-0.347 ± 0.17
F6P	-0.337 ± 0.2
F6D	-0.445 ± 0.31

Variant	abundance fitness
T52F	-0.285 ± 0.17
T52V	-0.014 ± 0.1
T52W	-0.316 ± 0.14
T52D	0.154 ± 0.19
T52I	-0.358 ± 0.17
N37G	-0.04 ± 0.12
N37D	-0.049 ± 0.2
N37Q	0.06 ± 0.27
N37C	-0.037 ± 0.21
N37L	-0.307 ± 0.18
N37V	-0.464 ± 0.29
R13E	-0.513 ± 0.29
R13M	-0.022 ± 0.2
R13W	-0.211 ± 0.18
R13I	0.092 ± 0.18
R13P	-0.849 ± 0.15
Y23Q	0.132 ± 0.34
Y23K	0.051 ± 0.29
Y23H	0.04 ± 0.34
Y23G	-0.21 ± 0.2
Y23C	-0.145 ± 0.26
Y23A	0.082 ± 0.19
